One molecule from PMC10354202 (2023) can be followed below.

The Kd is the free concentration of one partner at which half of the binding sites on the other are occupied at equilibrium, for simple one-to-one binding. High values mean lower affinity, low ones higher affinity.

What all share (test): magnetic tweezers
For assay [1], the target named is T1, talin VBS (UniProt Q9Y490, talin stretched at low force (up to ~9-10 pN)).
T1 chain: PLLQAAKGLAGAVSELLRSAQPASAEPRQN

For assay [2], the target named is T2, talin VBS (UniProt Q9Y490, talin stretched above ~10 pN).
T2 chain: T1 chain

For assay [3], the target named is T3, talin VBS (UniProt Q9Y490, talin stretched at low force, matured complex).
T3 chain: T1 chain

B1: vinculin (protein)
chain: MPVFHTRTIESILEPVAQQISHLVIMHEEGEVDGKAIPDLTAPVAAVQAAVSNLVRVGKETVQTTEDQILKRDMPPAFIKVENACTKLVQAAQMLQSDPYSVPARDYLIDGSRGILSGTSDLLLTFDEAEVRKIIRVCKGILEYLTVAEVVETMEDLVTYTKNLGPGMTKMAKMIDERQQELTHQEHRVMLVNSMNTVKELLPVLISAMKIFVTTKNSKNQGIEEALKNRNFTVEKMSAEINEIIRVLQLTSWDEDAWASKDTEAMKRALASIDSKLNQAKGWLRDPSASPGDAGEQAIRQILDEAGKVGELCAGKERREILGTCKMLGQMTDQVADLRARGQGSSPVAMQKAQQVSQGLDVLTAKVENAARKLEAMTNSKQSIAKKIDAAQNWLADPNGGPEGEEQIRGALAEARKIAELCDDPKERDDILRSLGEISALTSKLADLRRQGKGDSPEARALAKQVATALQNLQTKTNRAVANSRPAKAAVHLEGKIEQAQRWIDNPTVDDRGVGQAAIRGLVAEGHRLANVMMGPYRQDLLAKCDRVDQLTAQLADLAARGEGESPQARALASQLQDSLKDLKARMQEAMTQEVSDVFSDTTTPIKLLAVAATAPPDAPNREEVFDERAANFENHSGKLGATAEKAAAVGTANKSTVEGIQASVKTARELTPQVVSAARILLRNPGNQAAYEHFETMKNQWIDNVEKMTGLVDEAIDTKSLLDASEEAIKKDLDKCKVAMANIQPQMLVAGATSIARRANRILLVAKREVENSEDPKFREAVKAASDELSKTISPMVMDAKAVAGNISDPGLQKSFLDSGYRILGAVAKVREAFQPQEPDFPPPPPDLEQLRLTDELAPPKPPLPEGEVPPPRPPPPEEKDEEFPEQKAGEVINQPMMMAARQLHDEARKWSSKPGIPAAEVGIGVVAEADAADAAGFPVPPDMEDDYEPELLLMPSNQPVNQPILAAAQSLHREATKWSSKGNDIIAAAKRMALLMAEMSRLVRGGSGTKRALIQCAKDIAKASDEVTRLAKEVAKQCTDKRIRTNLLQVCERIPTISTQLKILSTVKATMLGRTNISDEESEQATEMLVHNAQNLMQSVKETVREAEAASIKIRTDAGFTLRWVRKTPWYQ
On to B1, for which the Kd with talin VBS [1] is roughly 0.2 nM; with talin VBS [2], roughly 5 nM; in the assay with talin VBS [3], roughly 0.004 nM.
